The values below are quoted from earlier work in article PMC5877629.

pKd: −log10 of the molar value.

For this series, the target named is infliximab. As to the kind of experiment: sedimentation equilibrium analytical ultracentrifugation.

The term pKd denotes −log10 of the Kd, conventionally taken in molar units. As to infliximab, the pKd is 4.68.
